Experimental data: the supplement of paper PMC7877785
± gives the uncertainty stated by the source.

Test: self-splicing fitness, log relative to wild type (ln ratio); higher = more splicing; Tetrahymena group I intron in knt gene, E. coli kanamycin selection, DiMSum; sequences stand for … in CUCUCU…GGAGGGAAAAGUUAUCAGGCAUGCACCUGGUAGCUAGUCUUUAAACCAAUAGAUUGCAUCGGUUUAAAAGGCAAGACCGUCAAAUUGCGGGAAAGGGGUCAACAGCCGUUCAGUACCAAGUCUCAGGGGAAACUUUGAGAUGGCCUUGCAAAGGGUAUGGUAAUAAGCUGACGGACAUGGUCCUAACCACGCAGCCAAGUCCUAAGUCAACAGAUCUUCUGUUGAUAUGGAUGCAGUUCACAGACUAAAUGUCGGUCGGGGAAGAUGUAUUCUUCUCAUAAGAUAUAGUCGGACCUCUCCUUAAUGGGAGCUAGCGGAUGAAGUGAUGCAACACUGGAGCCGCUGGGAACUAAUUUGUAUGCGAAAGUAUAUUGAUUAGUUUUGGAGUACUCGUGGUCG
Procedure, shortened: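 Colonies from six replicate transformations of E. coli BL21(DE3) were pooled and amplicon-sequenced on an Illumina HiSeq 2500. The library placed an intron with all eight P1ex-region nucleotides randomised inside the knt kanamycin-resistance gene on pET-22b(+), and cells grew overnight at 37°C or 30°C on LB agar with or without 25 μg/mL kanamycin (plus 100 μg/mL carbenicillin, 50 μM IPTG, 0.2% rhamnose). Fitness is the DiMSum error-weighted combination of wild-type-normalised replicate fold changes, kanamycin versus none.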

Sequence | self-splicing fitness (ln) (30 °C) | self-splicing fitness (ln) (37 °C)
GAUAAGCAAUAUUACGACUG | -1.18 ± 0.2 | 0.14 ± 0.25
GAUAAGCAAUAUUACGAGAG | -2.84 ± 0.26 | -3.04 ± 0.4
GAUAAGCAAUAUUACGAUUC | -1.39 ± 0.14 | -1.41 ± 0.17
GAUAAGCAAUAUUACGCAAA | -1.8 ± 0.16 | -1.49 ± 0.2
GAUAAGCAAUAUUACGCCGU | -0.976 ± 0.15 | -0.545 ± 0.17
GAUAAGCAAUAUUACGCGCG | -0.359 ± 0.096 | 0.119 ± 0.15
GAUAAGCAAUAUUACGCGUU | -2.05 ± 0.14 | -2.95 ± 0.32
GAUAAGCAAUAUUACGCUGU | -3.45 ± 0.18 | -2.18 ± 0.2
GAUAAGCAAUAUUACGCUUU | -1.7 ± 0.14 | -2.17 ± 0.21
GAUAAGCAAUAUUACGGAAU | -3.09 ± 0.14 | -2.28 ± 0.14
GAUAAGCAAUAUUACGGCAU | -0.333 ± 0.06 | 0.188 ± 0.085
GAUAAGCAAUAUUACGGCUC | -0.362 ± 0.17 | 0.29 ± 0.2
GAUAAGCAAUAUUACGGGGU | -3.97 ± 0.25 | -1.74 ± 0.16
GAUAAGCAAUAUUACGGUGU | -2.61 ± 0.12 | -1.59 ± 0.11
GAUAAGCAAUAUUACGUACG | -1.67 ± 0.1 | -0.494 ± 0.11
GAUAAGCAAUAUUACGUAGA | -3.26 ± 0.22 | -0.548 ± 0.14
GAUAAGCAAUAUUACGUAGG | -3.01 ± 0.13 | -1.86 ± 0.15
GAUAAGCAAUAUUACGUCAG | -4.56 ± 0.32 | -2.5 ± 0.23
GAUAAGCAAUAUUACGUCGA | -1.54 ± 0.14 | -0.37 ± 0.13
GAUAAGCAAUAUUACGUGUA | -2.1 ± 0.14 | -1.04 ± 0.14
GAUAAGCAAUAUUACGUUAU | -2.81 ± 0.1 | -1.63 ± 0.1
GAUAAGCAAUAUUACGUUCA | -0.732 ± 0.093 | -0.316 ± 0.12
GAUAAGCAAUAUUACGUUCU | -1.8 ± 0.14 | -2.58 ± 0.29
GAUAAGCAAUAUUACGUUUC | -3.88 ± 0.18 | -2.34 ± 0.2

Sequence | self-splicing fitness (ln) (30 °C) | self-splicing fitness (ln) (37 °C)
GAUCAGCAAUAUUACGACGC | -0.169 ± 0.077 | 0.198 ± 0.09
GAUCAGCAAUAUUACGAGAG | -1.7 ± 0.082 | -0.506 ± 0.082
GAUCAGCAAUAUUACGCAAC | -1.5 ± 0.13 | -0.455 ± 0.17
GAUCAGCAAUAUUACGCACA | -0.0131 ± 0.12 | 0.404 ± 0.13
GAUCAGCAAUAUUACGCAUC | -4.75 ± 0.31 | -3.11 ± 0.24
GAUCAGCAAUAUUACGCUAC | -3.38 ± 0.48 | -1.62 ± 0.29
GAUCAGCAAUAUUACGCUGC | -3.18 ± 0.19 | -2.18 ± 0.23
GAUCAGCAAUAUUACGGCGA | -0.479 ± 0.15 | -0.214 ± 0.15
GAUCAGCAAUAUUACGGGUU | -3.12 ± 0.26 | -2.88 ± 0.38
GAUCAGCAAUAUUACGGUAG | -0.683 ± 0.084 | 0.269 ± 0.1
GAUCAGCAAUAUUACGGUCA | -1.6 ± 0.14 | -0.459 ± 0.1
GAUCAGCAAUAUUACGGUUG | -1.02 ± 0.053 | -0.343 ± 0.073
GAUCAGCAAUAUUACGUAAC | -0.807 ± 0.093 | -0.643 ± 0.13
GAUCAGCAAUAUUACGUACC | -0.223 ± 0.073 | -0.245 ± 0.099
GAUCAGCAAUAUUACGUACU | -0.188 ± 0.067 | -0.441 ± 0.074
GAUCAGCAAUAUUACGUCCU | -0.874 ± 0.1 | -0.0507 ± 0.092
GAUCAGCAAUAUUACGUCGC | -1.11 ± 0.1 | 0.0313 ± 0.11
GAUCAGCAAUAUUACGUGGA | -2.82 ± 0.26 | -1.22 ± 0.13
GAUGAGCAAUAUUACGACAC | -1.25 ± 0.15 | -0.309 ± 0.16
GAUGAGCAAUAUUACGAGAC | -2.67 ± 0.25 | -1.97 ± 0.3
GAUGAGCAAUAUUACGAUAA | -3.49 ± 0.43 | -1.6 ± 0.33
GAUGAGCAAUAUUACGCAGA | -3.98 ± 0.43 | -0.801 ± 0.19
GAUGAGCAAUAUUACGCAUG | -1.61 ± 0.13 | -2.14 ± 0.2
GAUGAGCAAUAUUACGCCAA | -2.45 ± 0.26 | -2.61 ± 0.29

Sequence | self-splicing fitness (ln) (30 °C) | self-splicing fitness (ln) (37 °C)
GAUGAGCAAUAUUACGCCGA | – | -1.44 ± 0.45
GAUGAGCAAUAUUACGCGAG | -0.593 ± 0.16 | -0.578 ± 0.2
GAUGAGCAAUAUUACGCGGC | – | -2.77 ± 0.38
GAUGAGCAAUAUUACGCUCU | -3.24 ± 0.36 | -2.02 ± 0.44
GAUGAGCAAUAUUACGCUGA | -3.11 ± 0.44 | -2.46 ± 0.38
GAUGAGCAAUAUUACGCUUG | -3.15 ± 0.39 | -1.07 ± 0.3
GAUGAGCAAUAUUACGCUUU | -3.32 ± 0.21 | -3.79 ± 0.33
GAUGAGCAAUAUUACGGAGC | -3.9 ± 0.3 | -0.441 ± 0.13
GAUGAGCAAUAUUACGGCGU | -0.735 ± 0.11 | -0.736 ± 0.13
GAUGAGCAAUAUUACGGCUC | -0.914 ± 0.26 | -1.12 ± 0.32
GAUGAGCAAUAUUACGGGCU | -2.22 ± 0.4 | –
GAUGAGCAAUAUUACGGGUU | -2.39 ± 0.17 | -2.6 ± 0.27
GAUGAGCAAUAUUACGGUCA | -3.49 ± 0.47 | -0.516 ± 0.19
GAUGAGCAAUAUUACGGUGG | -4.41 ± 0.23 | -1.73 ± 0.14
GAUGAGCAAUAUUACGUACA | -2.09 ± 0.16 | -0.48 ± 0.13
GAUGAGCAAUAUUACGUACG | -2.59 ± 0.35 | -1.55 ± 0.5
GAUGAGCAAUAUUACGUUUC | -2.77 ± 0.31 | -2.57 ± 0.29
GAUUAGCAAUAUUACGACUC | -0.282 ± 0.13 | 0.2 ± 0.16
GAUUAGCAAUAUUACGAGCG | -1.27 ± 0.12 | 0.534 ± 0.12
GAUUAGCAAUAUUACGAGGG | -2.81 ± 0.29 | -2.88 ± 0.29
GAUUAGCAAUAUUACGAGUU | -2.53 ± 0.14 | -0.583 ± 0.11
GAUUAGCAAUAUUACGAUAG | -2.37 ± 0.13 | -1.1 ± 0.16
GAUUAGCAAUAUUACGAUGA | -1.8 ± 0.13 | 0.00201 ± 0.11
GAUUAGCAAUAUUACGCACA | -0.341 ± 0.17 | -0.721 ± 0.12

Sequence | self-splicing fitness (ln) (30 °C) | self-splicing fitness (ln) (37 °C)
GAUUAGCAAUAUUACGCAGU | -3.28 ± 0.32 | -1.44 ± 0.19
GAUUAGCAAUAUUACGCCUU | -0.529 ± 0.11 | -0.304 ± 0.12
GAUUAGCAAUAUUACGGACC | -0.347 ± 0.18 | -0.379 ± 0.16
GAUUAGCAAUAUUACGGAUU | -3.17 ± 0.21 | -2.13 ± 0.23
GAUUAGCAAUAUUACGGCAU | -0.835 ± 0.11 | 0.24 ± 0.12
GAUUAGCAAUAUUACGGCCG | -1.01 ± 0.13 | -1.01 ± 0.19
GAUUAGCAAUAUUACGGCGU | -0.737 ± 0.068 | -0.796 ± 0.062
GAUUAGCAAUAUUACGGGAU | -2.76 ± 0.2 | -1.14 ± 0.18
GAUUAGCAAUAUUACGGGGC | -3.62 ± 0.49 | -2.97 ± 0.3
GAUUAGCAAUAUUACGGUCC | -3.27 ± 0.39 | –
GAUUAGCAAUAUUACGUAUA | -2.65 ± 0.22 | -0.643 ± 0.19
GAUUAGCAAUAUUACGUCAG | -3.51 ± 0.35 | -4.23 ± 0.46
GAUUAGCAAUAUUACGUCUU | -0.485 ± 0.086 | -0.732 ± 0.088
GAUUAGCAAUAUUACGUGUG | -2.13 ± 0.077 | -1.61 ± 0.075
GAUUAGCAAUAUUACGUGUU | -2.85 ± 0.22 | -1.66 ± 0.14
GAUUAGCAAUAUUACGUUGA | -2.8 ± 0.22 | -2.25 ± 0.19
GCAAAGCAAUAUUACGAACC | -0.831 ± 0.13 | -0.43 ± 0.17
GCAAAGCAAUAUUACGAAUA | -2.56 ± 0.17 | -0.704 ± 0.13
GCAAAGCAAUAUUACGACAA | -1.43 ± 0.1 | -0.838 ± 0.087
GCAAAGCAAUAUUACGACGA | -0.0819 ± 0.088 | -0.213 ± 0.1
GCAAAGCAAUAUUACGACGG | -2.23 ± 0.13 | -1.2 ± 0.2
GCAAAGCAAUAUUACGAUCU | -0.767 ± 0.087 | -0.252 ± 0.099
GCAAAGCAAUAUUACGCAAA | -1.95 ± 0.1 | -1.58 ± 0.1
GCAAAGCAAUAUUACGCACG | -1.83 ± 0.12 | -0.806 ± 0.11
